The values that follow come from paper doi:10.1101/2025.03.06.641927, “Constitutively active RAS prolongs Cdc42 signalling while attenuating MAPK signalling during fission yeast mating” (bioRxiv, 2025).

The target in assay [1] is T1, His6-Ras1.G17V (1-172), GTP-loaded (fission yeast (Schizosaccharomyces …, UniProt P08647 1-172, G17V)).
T1 construct: Loaded with GTP by EDTA-mediated exchange (8 mM GTP, 12 mM EDTA, 37 C, 10 min; stopped with 20.5 mM MgCl2) just before the pull-down; Cloned in vector pLEICS1; also called Ras1.G17V^GTP; source: E. coli BL21 Rosetta, purified (Ni Sepharose 6 Fast Flow), dialysed, loaded with GTP
T1 sequence (looked up): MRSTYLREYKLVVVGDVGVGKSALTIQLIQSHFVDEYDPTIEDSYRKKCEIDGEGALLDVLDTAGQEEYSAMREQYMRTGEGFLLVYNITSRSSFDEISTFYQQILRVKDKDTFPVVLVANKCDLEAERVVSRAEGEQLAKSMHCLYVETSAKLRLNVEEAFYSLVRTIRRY
The experiment in a line: pull-down; GST fusion on glutathione sepharose beads incubated with GTP-loaded Ras1.G17V (1-172) in buffer A (20 mM Tris-Cl pH 7.5, 100 mM NaCl, 5 mM MgCl2, 1 mM beta-mercaptoethanol), 4 C, 30 min; bound fraction on SDS-PAGE, InstantBlue stain. Particulars: both partners purified.

Assay [2] deals with T1, His6-Ras1.G17V (1-172), GTP-loaded. The experiment in a line: pull-down; competition: GST-Byr2 (65-180) on glutathione beads incubated with GTP-loaded Ras1.G17V (1-172) with or without Scd1 (760-872) fragment, buffer A, 4 C, 30 min; Ras1.G17V band on SDS-PAGE quantified with Fiji. The note with it: both partners purified.

B1: GST-Byr2 (65-180) (domain or fragment, UniProt P28829 65-180, looked up)
chain: REFPRPCILRFIACNGQTRAVQSRGDYQKTLAIALKKFSLEDASKFIVCVSQSSRIKLITEEEFKQICFNSSSPERDRLIIVPKEKPCPSFEDLRRSWEIELAQPAALSSQSSLSP
notes: Cloned in vector pLEICS4; also called GST-Byr2-RBD; Byr2-RBD; source: E. coli BL21 Rosetta, purified on glutathione sepharose 4B (kept on the beads); not shown: GST, N-terminal, kept
On to B1, for which, in assay [1], the binding result is given as “binds”.

B2: GST-Scd1 (760-872) (domain or fragment, UniProt P40995 760-872, looked up)
chain: SSSTSTSLSVRNTTNVKIRLRLHEVSLVLVVAHDITFDELLAKVEHKIKLCGILKQAVPFRVRLKYVDEDGDFITITSDEDVLMAFETCTFELMDPVHNKGMDTVSLHVVVYF
notes: Cloned in vector pLEICS4; also called GST-Scd1-PB1; Scd1-PB1; source: E. coli BL21 Rosetta, purified on glutathione sepharose 4B (kept on the beads); not shown: GST, N-terminal, kept
For the molecule B2, in assay [1], the binding result is recorded as “binds”.

B3: Scd1 (760-872) fragment (domain or fragment, UniProt P40995 760-872, looked up)
chain: B2 chain
notes: also called Scd1-PB1 (cleaved from GST); not shown: GST, N-terminal, cleaved
As for B3, the binding result in assay [2] is “binds”.
